Experimental data published in article PMC2818592.

B1: aptamer-primer complex (anti-PDGF-BB aptamer with 3' RCA primer) (structured_DNA)
DNA: TACTCAGGGCACTGCAAGCAATTGTGGTCCCAATGGGCTGAGTATTTTTTTTGTCCGTGCTAGAAGGAAACAGTTAC

What was measured:
[1] = target: T1, PDGF-BB (platelet-derived growth factor B-chain homodimer) (UniProt P01127 82-190); test: microbead sandwich assay without RCA
[2] = target: T1, PDGF-BB (platelet-derived growth factor …); test: optical diffraction sandwich assay with RCA and microbeads

T1 sequence (P01127 82-190): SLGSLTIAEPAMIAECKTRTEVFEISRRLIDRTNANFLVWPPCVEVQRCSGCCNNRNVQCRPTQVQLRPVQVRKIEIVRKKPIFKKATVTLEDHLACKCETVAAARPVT

| Binder | binding result [1] | binding result [2] |
| --- | --- | --- |
| TACTCAGGGCACTGCAAGCAATTGTGGTCCCAATGGGCTGAGTATTTTTT (structured_DNA) [capture aptamer (anti-PDGF-BB)] | binds |  |
| B1 |  | binds |
